B1: TOR1AIP2 (parent)
chain: AGQEGEDTLRRRLLAPEAGSHPQQ
B2: ZNF649 (parent)
chain: MTKAQESLTLEDVAVDFTWEEWQF

Variants of: B1
Experiment: protein stability index of a GFP-peptide fusion (GPS, HEK-293T) (PSI 1-6); higher = more stable
Settings: c terminus: a fixed tail appended
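Note: lentivirally expressed fusions sorted by FACS into six bins by GFP to DsRed ratio, PSI derived from sequencing read proportions per bin multiplied by bin number.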

Protein stability index of substitutions, site by site:
A15: T 3.68; I 4.48; V 5.17; G 4.34; Q 4.9; L 5.02; E 5.18; F 4.87; C 1.34; M 4.55; R 5.03; K 5.44; S 3
G19: W 1.31; Y 1.75; Q 2.13; D 2.83; A 2.23; M 3; C 2.15; T 2.58; N 2.27
A1: L 2; K 2.54; G 3.25; S 1.4; N 2.5; I 4.08; T 2.11; Q 2.57; F 1.83; D 4.05
Q23: C 2.54; A 2.36; G 1.78; W 1.81; I 1.73; K 2.74; V 2.69; D 2.75; P 3.1; M 2.24; Y 2.01; E 2.18; L 2.45
R10: T 5.17; F 4.51; E 5.4; M 4.88; G 5.17; I 4.62; L 4.82; A 4.84; K 5.06; V 4.26; P 5.19; S 5.29; W 4.37; N 5.29
T8: Y 3.17; P 3.37; W 1.5; V 3.16; E 2.79; L 2.28; C 2.42; M 2.34; H 3.12; R 2.71; K 3.24; N 1.67; D 3.21; S 2.03; A 2.41; Q 2.81; F 3.06
G2: Q 1.64; S 2.71; A 4.25; E 2.74; W 2.45; M 1.55; F 2.99; Y 2.12; C 1.6; P 1.51; I 2.19; V 1.67; R 2.91
R12: T 2.35; E 4.75; A 2.65; K 3.55; I 1.93; D 4.7; C 2.51; F 1.83; Q 2.87; N 3.89; M 1.8; Y 2.3; L 2.56; V 2.47; H 3.29; P 5.19; G 4.97; S 3.03
A18: L 1.57; F 2.16; N 4.09; Y 1.43; Q 3.35; R 2.87; P 4.77; M 2.08; C 2.48; E 3.46; H 3.03; W 2.21; S 2.35; K 3.5; V 2.75
E17: M 2.79; V 4.57; D 2.2; I 4.11; C 3.65; Y 2.44; A 4.22; F 3.31; H 3.34; R 4.68; K 3.86; P 5.13; N 3.16
L13: P 5.6; H 4.82; W 3.21; Y 4.14; F 3.32; Q 5.15; V 3.31; C 3.48; R 5.04; S 5.22; N 5.55; E 5.53; G 5.55
D7: H 2.73; L 2.73; Y 2.41; E 2.56; P 4.24; C 1.54; Q 2.39; M 1.88; R 1.73; T 3.15; S 2.04
S20: D 3.33; M 2.68; H 2.1; C 1.62; N 2.02; Y 2.18; I 2.08; V 1.73; A 2.45; T 2.1; G 2.25; W 2.08
Q3: D 3.76; K 2.02; I 1.55; M 1.74; W 2.14; E 3.17; P 2.92; C 1.34; A 2.22; G 2.65; L 2.47
Q24: P 2.41; F 2.37; D 2.38; V 2.58; S 2.4; M 2.81; Y 2.46; N 2.25; E 2.52; I 2.16; T 2.22
E6: R 3.06; H 2.32; F 3.25; L 1.94; I 2.13; Y 2.5; G 1.73; Q 2.37; M 2.33; V 2.53
L14: W 4.69; C 4.91; I 5.06; N 5.56; G 5.21; Q 5.68; E 5.37; H 5.5; D 5.59; R 5.17
P16: Y 4.86; W 3.99; G 5.51; S 5.43; Q 5.21; C 4.47; I 5.07; F 4.52; E 5.45; V 4.63; K 5.01; D 5.74; L 5.32; H 4.5; N 5.24; A 5.48
P22: H 1.65; F 2.31; C 2.43; A 2.58; V 2.4; M 2.67; N 3.24; L 2.14; G 2.44; Y 1.52; K 2.44; S 1.81; E 2.66
G5: W 1.35; L 2.49; Q 2.99; V 2.55; P 2.91; C 3.6; R 2.46; E 2.72
H21: C 2.69; W 2.6; E 1.73; Y 1.85; P 2.82; L 2.27; T 2.26; Q 2.7; A 2.53; N 2.69; R 2.14; D 3.73; I 2.96; S 2.76; M 1.88; K 2.58; G 2.47
R11: I 2.85; Q 3.78; C 3.77; S 4.4; V 3.27; P 5.65; T 3.98; M 2.22; Y 1.16
E4: V 2.79; G 2.21; M 2.05; H 1.79; P 1.61; Y 1.72; R 1.29; C 2.16; I 1.74; N 1.65; F 1.79; K 1.85; Q 2.17; L 1.81; D 2.02; S 2.31
L9: W 2.41; S 5.06; N 4.61; T 4.59; A 4.4; C 4.29; R 4.45; P 4.27; H 4.71; V 3.8

Variants of: B2
Experiment: as above
Settings: c terminus: a fixed tail appended

Protein stability index of substitutions, site by site:
M1: L 2.94; I 2.83; K 3.29; F 2.69; G 3.43; V 3.07; Q 3.89; A 3.33; Y 2.96; D 3.95; S 3.91; T 3.79; H 3.72; E 4.48; W 2.07; P 2.81; N 4.67; C 2.82
T2: I 2.75; S 2.55; L 3.97; E 3.94; D 3.5; H 2.88; K 3.77; N 3.62; A 3.09; C 2.57; R 2.72; G 3.25; F 2.66; P 3.66

Source: the supplement of paper PMC10567573
